Biological target: the molecule itself
Test: crystal structure; CmnC apo and soaked complexes (L-Arg, L-hArg, alpha-KG, L-Arg/alpha-KG), space group I222, two chains in the asymmetric unit; apo crystals from 200 mM ammonium acetate, 24% v/v PEG 400, 0.1 M sodium citrate pH 5.5, 20°C

B1: CmnC (enzyme)
chain: MTAIREIRLSEPESAQAALLALECAQRYAEPDSADFLADAAVLAHDLPRAVRREVERARLDDRLHALVVRGNDVDQDALGPTPPHWRQARTAASRRYGFLLVLYASLLGDVVGWATQQDGRVVTDVLPIEGQEDSLVSSSSSVELGWHTEDAFSPYRADYVGLFSLRNPDSVATTVAGLDPDLVGPAVVDVLFGERFHIRPDNSHLPTHNSGGRLSDYFAGIVEAVENPRAVSILRGHRDAPQLCVDSDFTTAVDGDAEAAGALDTLIKHLGGALYEVVLGPGDVAFLDNRNVVHGRRPFRARFDGTDRWLKRINVTADLRKSRAARRDAQARVLGEA
notes: CmnC, alpha-ketoglutarate-dependent non-heme iron oxygenase of capreomycin biosynthesis; gene cmnC amplified from genomic DNA of the capreomycin producer (ATCC 23892) and subcloned into pET28a; also called CmnC^apo; wild-type CmnC
- stoichiometry N: 2

Source: PMC9513391, “Crystal structure of the α-ketoglutarate-dependent non-heme iron oxygenase CmnC in capreomycin biosynthesis and its engineering to catalyze hydroxylation of the substrate enantiomer” (Frontiers in Chemistry, 2022)
